Measured values taken from patent publication US20190071489A1.
Several values for one entry are separate records, joined by “and”; a condition that tells them apart may be missing. Equal values may be shown once.

Columns and labels:
[1] = target: EBOV GP (Ebola virus , Mayinga) (UniProt Q05320); assay: cell-based or functional assay
[2] = target: EBOV GP (Ebola virus , Mayinga) (UniProt Q05320)
[3] = target: EBOV GP (Ebola virus , Mayinga) (UniProt Q05320); remark: listed apart in the source

Chain of UniProt Q05320 (Q05320 33-501, chain 1 of 2): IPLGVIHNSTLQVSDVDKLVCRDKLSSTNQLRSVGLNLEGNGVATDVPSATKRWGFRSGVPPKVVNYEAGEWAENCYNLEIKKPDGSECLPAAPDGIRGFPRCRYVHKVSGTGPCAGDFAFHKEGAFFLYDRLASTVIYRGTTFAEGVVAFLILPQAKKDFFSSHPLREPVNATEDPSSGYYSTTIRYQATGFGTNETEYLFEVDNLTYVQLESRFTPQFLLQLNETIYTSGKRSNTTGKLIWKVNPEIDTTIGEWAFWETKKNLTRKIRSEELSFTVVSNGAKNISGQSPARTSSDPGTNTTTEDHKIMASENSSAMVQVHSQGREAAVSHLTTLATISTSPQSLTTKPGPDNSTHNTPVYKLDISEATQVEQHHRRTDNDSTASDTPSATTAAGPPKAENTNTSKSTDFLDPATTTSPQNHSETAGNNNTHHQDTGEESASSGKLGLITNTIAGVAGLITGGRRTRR
Chain of UniProt Q05320 (Q05320 502-650, chain 2 of 2): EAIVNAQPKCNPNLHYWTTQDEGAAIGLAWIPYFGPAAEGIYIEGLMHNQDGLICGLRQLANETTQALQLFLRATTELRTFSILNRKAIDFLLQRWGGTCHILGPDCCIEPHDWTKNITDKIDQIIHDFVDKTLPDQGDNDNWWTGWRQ

13C6 (antibody)
neutralization at 10 µg/mL [1]: < 20%

KZ52 (antibody)
maximum inhibition of input virus [1]: 80% and 90%

B1: EVB100 (antibody, V domains shown)
VH: QVQLQESGPGLVKPSDTLSLTCTVSGGSLSSFYWSWIRQPPGKGLEWIGYIYYSGSPNYSPSLESRVTMSVDTTRNQISLKLDSVTAADTAVYYCVRASRSYYWGSYRPTAFDSWGQGTLVTVSS
VL: SYELTQPLSVSVSPGQTAIFTCSGDNLGDKYVCWFQQRPGQSPMLLIYQDNKRPSGIPERFSGSNSGNTATLTISGTQSTDEADYYCQTWDSTVVFGGGTKLTVL
maximum inhibition of input virus [1]: 100%
EC50 [2]: 0.26 µg/mL

B2: EVB165 (antibody, V domains shown)
VH: DVQLVESGGGVVQPGGSLKLACVVSGFRFSDYWMSWVRQAPGKGLEWVANIKQDGSGKYYVDSVKGRFTVSRDNAKNSLYLHMTSLGAEDTAVYFCARAAPTGSYTNILVDNVHFDYWGQGILVAVSS
VL: GIQLTQSPGSLSASVGDSVTITCRPNQNIATYINWYQQTPGKAPKLLIYAASILQSGVPSRFSGAGSGTHFTLIISTLQPEDSATYYCQQSYSTPWTFGQGTKVEIK
Abs 450 (1/27) [3]: 1.72 Abs 450
Abs 450 (Und.) [3]: 3.17 Abs 450
maximum inhibition of input virus [1]: 100%
EC50 [2]: > 1 µg/mL

B3: EVB167 (antibody, V domains shown)
VH: AVQLVQSGAEVKKPGTTVKISCKVSGYTFIQEYIHWVQQAPGKGLVWMGLGDPENNETLYSEDFQGRVTMTADTSSDTAYLELRSLTFADTAVYFCTSRKSWWGQGTLVTVAS
VL: ELVLTQSPGTLSLSPGESATLSCRASQSLSSDSVSWFQQKPGQAPRLVIHGTSKRATGIPDRFSGGGSGTDFTLTIARLEPEDFAVYYCQRSGYGMSVTWTFGQGTTVEIK
Abs 450 (1/27) [3]: 2.97 Abs 450
Abs 450 (Und.) [3]: 3.37 Abs 450

B4: EVB114 (antibody, V domains shown)
VH: EVQLVESGGGLIQPGGSLRLSCAASGFALRMYDMHWVRQTIDKRLEWVSAVGPSGDTYYADSVKGRFAVSRENAKNSLSLQMNSLTAGDTAIYYCVRSDRGVAGLFDSWGQGILVTVSS
VL: DIQMTQSPSSLSASVGDRITITCRASQAFDNYVAWYQQRPGKVPKLLISAASALHAGVPSRFSGSGSGTHFTLTISSLQPEDVATYYCQNYNSAPLTFGGGTKVEIK
maximum inhibition of input virus [1]: 100%
EC50 [2]: 0.07 µg/mL
maximal binding, higher than the other antibodies [2]: 100%
